This is an account of results in US20210163945, “APTAMERS FOR TARGETING COAGULATION FACTOR XIII AND USES THEREOF” (Chang Gung University, published 2021).

The target in series [1] is T1, Coagulation factor XIII (FXIII) (UniProt P00488;P05160 P00488:2-732,P05160:21-661).
T1 sequence 1: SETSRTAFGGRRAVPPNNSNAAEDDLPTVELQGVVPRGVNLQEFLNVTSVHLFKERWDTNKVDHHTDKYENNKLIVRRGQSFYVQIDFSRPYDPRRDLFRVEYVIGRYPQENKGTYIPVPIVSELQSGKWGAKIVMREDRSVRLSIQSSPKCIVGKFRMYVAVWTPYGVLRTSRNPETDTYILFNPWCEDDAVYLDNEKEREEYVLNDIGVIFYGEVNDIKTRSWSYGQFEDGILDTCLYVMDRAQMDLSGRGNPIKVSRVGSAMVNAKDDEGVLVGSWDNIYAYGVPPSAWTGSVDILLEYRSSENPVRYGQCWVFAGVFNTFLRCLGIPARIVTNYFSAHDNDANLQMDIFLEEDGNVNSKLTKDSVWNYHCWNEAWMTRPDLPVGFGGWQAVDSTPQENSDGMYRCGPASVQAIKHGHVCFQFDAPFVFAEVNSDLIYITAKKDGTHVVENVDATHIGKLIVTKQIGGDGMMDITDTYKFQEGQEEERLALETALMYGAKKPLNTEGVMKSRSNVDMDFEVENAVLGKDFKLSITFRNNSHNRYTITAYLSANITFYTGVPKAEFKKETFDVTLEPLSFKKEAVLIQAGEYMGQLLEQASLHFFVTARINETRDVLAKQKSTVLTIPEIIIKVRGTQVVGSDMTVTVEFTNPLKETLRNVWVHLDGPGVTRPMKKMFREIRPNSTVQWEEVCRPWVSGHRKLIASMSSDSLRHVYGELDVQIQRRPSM
T1 sequence 2: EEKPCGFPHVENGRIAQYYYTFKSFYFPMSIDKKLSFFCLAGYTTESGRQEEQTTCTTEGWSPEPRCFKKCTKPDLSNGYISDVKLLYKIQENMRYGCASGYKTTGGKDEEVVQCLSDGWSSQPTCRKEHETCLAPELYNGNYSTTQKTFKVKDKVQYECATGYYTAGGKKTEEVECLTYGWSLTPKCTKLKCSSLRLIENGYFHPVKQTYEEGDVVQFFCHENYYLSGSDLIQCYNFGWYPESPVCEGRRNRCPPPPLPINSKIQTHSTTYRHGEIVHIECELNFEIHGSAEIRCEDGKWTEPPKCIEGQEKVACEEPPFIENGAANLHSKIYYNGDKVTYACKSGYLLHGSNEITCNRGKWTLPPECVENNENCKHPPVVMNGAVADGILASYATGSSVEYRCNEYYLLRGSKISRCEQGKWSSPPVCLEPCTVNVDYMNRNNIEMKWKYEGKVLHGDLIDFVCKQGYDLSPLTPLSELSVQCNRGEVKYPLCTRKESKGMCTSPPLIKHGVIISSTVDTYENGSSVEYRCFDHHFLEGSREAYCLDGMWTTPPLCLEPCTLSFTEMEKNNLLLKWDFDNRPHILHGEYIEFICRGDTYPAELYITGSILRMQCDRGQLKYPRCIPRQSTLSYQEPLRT
Kind of series: dot blot, binds under native and denatured conditions; PBS/Tween 20, BSA block. The note with it: chain copies: 2; label: FAM or biotin. The protocol: Purified FXIII was blotted on a nitrocellulose (NC) membrane, and air-dried for 1 hr. Then a mixture of BSA, PBS, and Polyoxyethylene(20)sorbitan monolaurate (TWEEN™ 20) was added to the NC membrane and incubated for 1 hr, and following biotin-conjugated aptamers were added to the NC membrane and incubated for another 1 hr. The NC membrane was washed thrice using a washing buffer of PBS and Tween 20, and horseradish peroxidase (HRP)-conjugated streptavidin was added to the NC membrane and incubated for 1 hr. For coloration, a substrate of HRP was added to the NC membrane after washing, and the images of the NC membrane were acquired by a X-ray film processor.

The target of series [2] is Bovine serum albumin (BSA) (Bos taurus, UniProt P02769 P02769:25-607). Kind of series: dot blot, no binding under native or denatured condition. Conditions: label: FAM or biotin.
Bovine serum albumin (BSA), sequence (P02769 25-607, one chain of several): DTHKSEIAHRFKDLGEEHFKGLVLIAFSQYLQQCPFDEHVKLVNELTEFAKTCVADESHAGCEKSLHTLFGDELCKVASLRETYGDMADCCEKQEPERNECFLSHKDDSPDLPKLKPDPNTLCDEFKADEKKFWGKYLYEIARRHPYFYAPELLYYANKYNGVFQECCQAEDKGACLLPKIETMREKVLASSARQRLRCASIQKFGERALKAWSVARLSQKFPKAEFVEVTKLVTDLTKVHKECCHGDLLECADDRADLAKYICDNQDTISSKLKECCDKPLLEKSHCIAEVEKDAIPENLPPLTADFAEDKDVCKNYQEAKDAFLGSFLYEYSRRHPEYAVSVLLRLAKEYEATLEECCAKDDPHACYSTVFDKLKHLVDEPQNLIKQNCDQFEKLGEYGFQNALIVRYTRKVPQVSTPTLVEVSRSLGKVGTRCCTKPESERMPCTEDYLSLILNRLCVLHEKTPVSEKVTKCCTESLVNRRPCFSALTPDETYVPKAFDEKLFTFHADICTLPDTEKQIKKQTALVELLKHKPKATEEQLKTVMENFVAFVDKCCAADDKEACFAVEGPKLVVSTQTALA

In the case of CGCAGCATCATTCGGGTCGGGAAGGGGTGTACGGGGCTGCG (ssDNA) [FAT2], the binding result was “binds” in series [1] and “no binding” in series [2].
